Test results published in article PMC6177447, “Cryo-EM structure of the hibernating Thermus thermophilus 100S ribosome reveals a protein-mediated dimerization mechanism” (Nature Communications, 2018).

Target: the molecule itself
Experiment: SEC; purified TtHPF without ribosome on Superdex200 Increase 10/300 in buffer F (20 mM Hepes/KOH pH 7.5, 100 mM KCl, 10% v/v glycerol, 1 mM DTT); elution volume compared to standard proteins

B1: Thermus thermophilus hibernation-promoting factor (TtHPF) (natural protein, UniProt Q5SIS0 1-186, looked up)
chain: MNIYKLIGRNLEITDAIRDYVEKKLARLDRYQDGELMAKVVLSLAGSPHVEKKARAEIQVDLPGGLVRVEEEDADLYAAIDRAVDRLETQVKRFRERRYVGKRHSYQGPPPPEVRDLEALRKPEEEEGPRIVRVKRFEMKPMDPEEAAFQMEALGHSFFVFRNAKTDEINVIYRRKDGNYGLIEPA
notes: Hibernation-promoting factor TtHPF of Thermus thermophilus, UniProt Q5SIS0; gene amplified from genomic DNA with primers from the start codon to the stop codon; residues 2-122 (NTD and linker) and 129-185 (CTD) were modelled in the cryo-EM maps; The forward primer encodes a TEV site (ENLYFQG) directly before Met1, so a Gly probably remains at the N-terminus after TEV cleavage (surmised); The …
stoichiometry N: 2
